Measurements as given in the supplement of paper PMC9170038.

Tests used:
MS2 coat protein [1] = assay: apparent KD of MS2 coat protein, switch ON state; designed switch direction (-1 OFF switch, 1 ON switch): 1; higher = weaker reporter binding; details: FMN input: 0 or 200 uM; Eterna round: R93 (includes R88 designs)
Summary of the method: (§1)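 Designed RNA switches were transcribed on-chip from Illumina sequencing clusters. SNAP-549-labelled MS2 coat protein was titrated onto them in twofold steps from 0.7 or 1.5 nM to 3 µM in 100 mM Tris-HCl pH 7.5, 80 mM KCl, 4 mM MgCl2, either without or with constant ligand. Apparent KD reflects the per-design median of normalised cluster binding-curve fits.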

MS2 coat protein [2] = assay: apparent KD of MS2 coat protein, switch OFF state (with FMN for OFF switches, without FMN for ON switches); designed switch direction (-1 OFF switch, 1 ON switch): 1; higher = weaker reporter binding; details: FMN input: 0 or 200 uM; Eterna round: R93 (includes R88 designs)
Summary of the method: as §1

Sequence	apparent KD of MS2 coat protein (MS2 coat protein [1])	apparent KD of MS2 coat protein (MS2 coat protein [2])
AAAAAAAAGGGUGAGGAUAUAGAAAAAAAAACAUGAGGAUCACCCAUGUGAAAAAAAAAAAAAAGCUAGAAGGCACAAAAAAAAAA [Same State 2]	79.2 nM	159 nM
AAAAAACAUGAGGAUCACCCAUGUAAUACAACAUCAGGAUAUUGGCUUUACUAUGUAUUACAAGAAGGGAUGAAAA [Same State 1.3c (Same State 1 - Omei 2 )]	171 nM	53.8 nM
AAAAAACAUGAGGAUCACCCAUGUAGAAACAUGGGAGGAUAUACAAAGACGAAAGUCAAAGUAGAAGGCCUAAAAG [Mat - Same State 1 - Mod - D158]	224 nM	69.2 nM
AAAAAACAUGAGGAUCACCCAUGUCAAAAGACAUGAGGAUAUGUGUGGAAACCAUACUAUACAGAAGGCAUAAAAA [SS1 - 1008]	105 nM	159 nM
AAAAAACAUGAGGAUCACCCAUGUCAAAAGACGUGAGGAUAUGUACAGACUUCGGUCUGUACAGAAGGCACAAAAA [SS1 - 1031]	17.2 nM	40.3 nM
AAAAAACAUGAGGAUCACCCAUGUCCUCGGACGUGAGGAUAUGUACAGACUUCGGUCUGUACAGAAGGCAUGAAAA [SS1 - 1059]	432 nM	201 nM
AAAAAACAUGAGGAUCACCCAUGUGCAAAAUUCGCAGGAUAUUCCUCAAUUAAAUGAGAGGAAGAAGGGUGAAAAA [Nob's Hobby 26 - Jieux - Same State 1]	21.3 nM	171 nM
AAAAAACAUGAGGAUCACCCAUGUGGGAAUAUGGAAGGAUAUACAAAGACGAAAGUCAAAGUAGAAGGUCUAAAAG [76%, Meechl 2]	39.6 nM	41.9 nM
AAAAAAUAAAAAAAGGAUAUAAAUGGUACAACAUGAGGAUCACCCAUGUAGUACCAAAAAAUAAAAAAGAAGGAAAAAUAAAAAA [SS2: MS2 22]	20.8 nM	23.7 nM
AAAAACAUGGUGUAGGAUAUAUUAAUAGUCACAUGAGGAUCACCCAUGUUCAGAUAUCUGAACGAGUAGAAGGACGAUGAAAAAA [Mat - Same state - Malcolm Mod - D109]	454 nM	349 nM
AAAACACAUGAGGAUCACCCAUGUAAAAACAAGAGAGGAUAUGCUUGGAAAACAUGCUAUGCAGAAGGCUCAAGUG [SS1 - 10]	19.2 nM	24.5 nM
AAAACACAUGAGGAUCACCCAUGUAAAAACAUGGGAGGAUAUGCUUGGAAAACAUGCUAUGCAGAAGGCUCAAGUG [SS1 - 12]	72.6 nM	46.4 nM
AAAAGACAUGAGGAUCACCCAUGUAAAAACGUAGGAGGAUAUGUAUGGAAACCAGACUGUACAGAAGGCCUUUGUC [SS1 - 73]	20 nM	19.4 nM
AAAAGACAUGAGGAUCACCCAUGUAAAGACAUAGGAGGAUAUGUCAUGAAAAAAGACUUGACAGAAGGCCUUUGUC [SS1 - 50]	20.4 nM	20.4 nM
AAAAGACAUGAGGAUCACCCAUGUCAAAACGUAGGAGGAUAUGUCUUGAAAAAAGACUUGACAGAAGGCCUGUGUC [SS1 - 54]	15.1 nM	17 nM
